US20070077603A1 (published 2007)
One block for each molecule: values may come before it.

T1: C4b-binding protein (human, UniProt P04003 49-597; P20851 18-252)
T1 construct: Endogenous plasma protein; also called C4BP
T1 sequence (looked up) 1: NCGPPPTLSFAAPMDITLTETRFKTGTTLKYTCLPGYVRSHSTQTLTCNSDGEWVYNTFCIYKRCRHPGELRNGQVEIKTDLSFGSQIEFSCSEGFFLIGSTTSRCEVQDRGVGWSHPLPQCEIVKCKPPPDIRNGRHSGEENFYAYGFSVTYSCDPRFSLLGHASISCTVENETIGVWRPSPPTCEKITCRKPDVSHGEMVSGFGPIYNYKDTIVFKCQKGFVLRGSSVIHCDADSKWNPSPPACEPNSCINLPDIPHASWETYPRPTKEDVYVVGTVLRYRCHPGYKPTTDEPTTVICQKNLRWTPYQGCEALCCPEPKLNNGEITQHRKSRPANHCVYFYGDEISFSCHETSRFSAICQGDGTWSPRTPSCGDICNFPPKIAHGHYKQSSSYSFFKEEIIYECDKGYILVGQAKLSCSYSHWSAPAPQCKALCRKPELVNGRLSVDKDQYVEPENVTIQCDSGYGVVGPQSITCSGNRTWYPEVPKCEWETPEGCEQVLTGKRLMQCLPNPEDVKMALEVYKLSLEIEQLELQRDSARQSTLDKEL
T1 sequence (looked up) 2: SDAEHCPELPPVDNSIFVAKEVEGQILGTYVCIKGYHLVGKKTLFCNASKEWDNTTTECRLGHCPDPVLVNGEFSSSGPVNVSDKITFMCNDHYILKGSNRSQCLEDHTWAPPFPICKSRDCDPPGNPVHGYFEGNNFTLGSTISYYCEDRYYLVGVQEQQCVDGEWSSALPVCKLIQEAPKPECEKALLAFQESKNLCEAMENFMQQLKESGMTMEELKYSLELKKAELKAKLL

T2: recombinant human Gas6 (human, UniProt Q14393 49-678, limits assumed)
T2 construct: Control vitamin K-dependent protein on the ligand blot (200 ng)
T2 sequence (looked up): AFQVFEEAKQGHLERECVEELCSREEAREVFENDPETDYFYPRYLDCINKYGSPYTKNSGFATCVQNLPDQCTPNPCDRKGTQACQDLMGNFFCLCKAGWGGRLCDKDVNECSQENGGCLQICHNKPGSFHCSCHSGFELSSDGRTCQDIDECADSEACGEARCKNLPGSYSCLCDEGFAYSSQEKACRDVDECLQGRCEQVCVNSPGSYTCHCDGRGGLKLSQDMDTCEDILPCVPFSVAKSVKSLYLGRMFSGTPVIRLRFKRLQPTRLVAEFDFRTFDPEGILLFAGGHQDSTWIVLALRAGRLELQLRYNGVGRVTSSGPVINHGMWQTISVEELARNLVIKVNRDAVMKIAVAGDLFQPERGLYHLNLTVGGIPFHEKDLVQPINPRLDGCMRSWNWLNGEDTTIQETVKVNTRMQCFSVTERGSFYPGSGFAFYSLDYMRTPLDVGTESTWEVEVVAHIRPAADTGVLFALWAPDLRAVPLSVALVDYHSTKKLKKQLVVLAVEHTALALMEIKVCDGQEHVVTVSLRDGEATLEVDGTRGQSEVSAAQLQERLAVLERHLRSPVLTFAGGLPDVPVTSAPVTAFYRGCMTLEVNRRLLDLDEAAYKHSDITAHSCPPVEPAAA

T3: Protein S-C4b-binding protein complex in fractionated hirudin-plasma (human, UniProt P07225 42-676; P04003 49-597; P20851 18-252)
T3 construct: Native complex from plasma; also called PS-C4BP; Cx
T3 sequence (looked up) 1: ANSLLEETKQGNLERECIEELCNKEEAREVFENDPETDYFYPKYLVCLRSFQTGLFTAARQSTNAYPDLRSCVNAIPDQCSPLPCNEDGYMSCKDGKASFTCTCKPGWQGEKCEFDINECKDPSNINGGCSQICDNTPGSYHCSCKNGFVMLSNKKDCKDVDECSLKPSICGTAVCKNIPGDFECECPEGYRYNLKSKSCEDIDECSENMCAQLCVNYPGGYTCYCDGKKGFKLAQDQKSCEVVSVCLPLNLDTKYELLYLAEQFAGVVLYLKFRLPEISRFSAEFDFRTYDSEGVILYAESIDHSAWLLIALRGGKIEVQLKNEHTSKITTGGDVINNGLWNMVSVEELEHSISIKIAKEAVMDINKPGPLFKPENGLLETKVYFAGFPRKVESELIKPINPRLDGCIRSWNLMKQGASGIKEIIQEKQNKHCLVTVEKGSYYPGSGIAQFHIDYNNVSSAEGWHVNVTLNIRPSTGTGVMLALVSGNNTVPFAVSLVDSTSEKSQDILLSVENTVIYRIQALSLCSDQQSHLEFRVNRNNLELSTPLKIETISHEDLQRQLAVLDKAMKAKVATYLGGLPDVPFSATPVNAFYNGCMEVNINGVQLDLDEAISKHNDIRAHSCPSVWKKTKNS
T3 sequence (looked up) 2: T1 sequence (looked up) 1
T3 sequence (looked up) 3: T1 sequence (looked up) 2

T4: multimeric protein S in plasma (human, UniProt P07225 42-676)
T4 construct: mature; also called protein S multimers in plasma; putative protein S multimers
T4 sequence (looked up): T3 sequence (looked up) 1

B1: protein S monomers (purified) (other, UniProt P07225 42-676, looked up)
chain: T3 sequence (looked up) 1
B2: monomeric protein S in plasma (other, human, UniProt P07225 42-676, looked up)
chain: T3 sequence (looked up) 1
notes: mature; also called monomers
B3: protein S dimers (purified) (other, UniProt P07225 42-676, looked up)
chain: T3 sequence (looked up) 1
B4: Biotin-DIP-FXa (enzyme)
chain 1: ANSFLEEMKKGHLERECMEETCSYEEAREVFEDSDKTNEFWNKYKDGDQCETSPCQNQGKCKDGLGEYTCTCLEGFEGKNCELFTRKLCSLDNGDCDQFCHEEQNSVVCSCARGYTLADNGKACIPTGPYPCGKQTLER
chain 2: IVGGQECKDGECPWQALLINEENEGFCGGTILSEFYILTAAHCLYQAKRFKVRVGDRNTEQEEGGEAVHEVEVVIKHNRFTKETYDFDIAVLRLKTPITFRMNVAPACLPERDWAESTLMTQKTGIVSGFGRTHEKGRQSTRLKMLEVPYVDRNSCKLSSSFIITQNMFCAGYDTKQEDACQGDSGGPHVTRFKDTYFVTGIVSWGEGCARKGKYGIYTKVTAFLKWIDRSMKTRGLPKAKSHAPEVITSSPLK
modifications: treated with diisoproylfluorophosphate until >95% of its amidolytic activity was lost and then biotinylated; biotinylated (sites not given)
notes: Used at 3 µg/ml as probe in ligand blots; also called FXa treated with diisopropylfluorophosphate and biotinylated
B5: Biotin-FX (other)
chain 1: B4 chain 1
chain 2: SVAQATSSSGEAPDSITWKPYDAADLDPTENPFDLLDFNQTQPERGDNNLTRIVGGQECKDGECPWQALLINEENEGFCGGTILSEFYILTAAHCLYQAKRFKVRVGDRNTEQEEGGEAVHEVEVVIKHNRFTKETYDFDIAVLRLKTPITFRMNVAPACLPERDWAESTLMTQKTGIVSGFGRTHEKGRQSTRLKMLEVPYVDRNSCKLSSSFIITQNMFCAGYDTKQEDACQGDSGGPHVTRFKDTYFVTGIVSWGEGCARKGKYGIYTKVTAFLKWIDRSMKTRGLPKAKSHAPEVITSSPLK
modifications: biotinylated (sites not given)

Experiments:
[1] = molecular target: FXa/FVa (prothrombinase components) (UniProt P00742); assay: cell-based or functional assay
[2] = molecular target: FXa/FVa (prothrombinase components) (UniProt P00742 41-179; P00742 235-488; P12259 29-737; P12259 1574-2224); assay: cell-based or functional assay
C4b-binding protein = molecular target: T1, C4b-binding protein; assay: complex in hirudin-plasma, Superose-6 gel filtration and immunoblot from native PAGE
Experimental: (§1) Gel filtration - - - Purified protein S preparations or hirudin-plasma (200 μl ) were fractionated on a 1×30 cm Superose-6 HR column using Fast Performance Liquid Chromatography (Amersham-Pharmacia, Piscattaway, N.J.) at a flow rate of 0.4 ml/min in Hepes-buffered saline (HBS). Hirudin and citrated plasmas (300 ul) were each mixed with 700 μl of 50 mM benzamidine and fractionated on a 1.6×60 cm Sephacryl-300 column at a flow rate of 0.4 ml/min in Tris-buffered saline. Fractions were analyzed for protein S antigen by ELISA, for protein S multimers by native PAGE, and for PS-direct. ELISAs were also performed on the fractions for FV, FX, and C4BP antigens
Fractionation of plasma - - - When hirudin-plasma was gel-filtered on Superose-6 (FIG. 8A), forms that could be identified by immunoblotting from native PAGE were PS-C4BP complexes (fractions 31-39), followed by putative protein S multimers of three types (arrows), and monomeric protein S (fractions 47-54). A smeared band near the void volume marked with ? […] The original quantity of multimers may have been greater than seen in FIG. 8A, since there was evidence of dissociation to monomer in most fractions. […]

human protein C = molecular target: T5, human protein C (human, UniProt P04070 43-197; P04070 200-461); assay: ligand blot from native 10% PAGE, biotin-DIP-FXa, streptavidin-HRP
T5 construct: Control vitamin K-dependent protein on the ligand blot (200 ng)
Experimental: (§2) For ligand blotting, FXa was treated with diisoproylfluorophosphate until >95% of its amidolytic activity was lost and then biotinylated as described (Heeb, et al. (1994) Proc. Natl. Acad. Sci. USA 91, 2728-2732). Blots containing 200 ng of protein S or control proteins were incubated with 3 μg/ml of this DIP-FXa for 1 h, followed by streptavidin-horse radish peroxidase (Pierce), chemiluminescent substrate and film exposure.
(§3) Ligand blotting of DIP-FXa to protein S monomers and dimers - - - Biotin-DIP-FXa could ligand blot to both protein S monomers and dimers, but not to two other vitamin K-dependent proteins (FIG. 3). DIP-FXa ligand blotted to monomers and multimers of protein S on native 10% PAGE, but not to human protein C or recombinant human Gas6. […] Note that protein S no. 1 has few monomers compared to protein S no. 2,and protein S no. 2 is <50% monomeric. (see FIG. 4).

recombinant human Gas6 = molecular target: T2, recombinant human Gas6; assay: as above
Experimental: as §2, §3

[3] = molecular target: T3, Protein S-C4b-binding protein complex …; assay: ligand blot from native 4-15% PAGE of Sephacryl-300 fractions of hirudin-plasma
Experimental: as §1
(§4) To further separate protein S forms in plasma, hirudin-plasma and citrated plasma were each subjected to gel filtration on a larger column (FIGS. 8B and 8C). […] Biotin-FXa could ligand blot (Heeb, et al. Protein S binds to and inhibits factor Xa. Proc Natl Acad Sci USA. 1994;91:2728-2732) to PS-C4BP, multimeric and monomeric protein S in fractionated hirudin plasma (FIG. 8C).

[4] = molecular target: B2; assay: as above
Experimental: as §1, §4

[5] = molecular target: T4, multimeric protein S in plasma; assay: as above
Experimental: as §1, §4

Chain of FXa/FVa (prothrombinase components) (UniProt P00742) (P12259 29-737 limits assumed, chain 3 of 2): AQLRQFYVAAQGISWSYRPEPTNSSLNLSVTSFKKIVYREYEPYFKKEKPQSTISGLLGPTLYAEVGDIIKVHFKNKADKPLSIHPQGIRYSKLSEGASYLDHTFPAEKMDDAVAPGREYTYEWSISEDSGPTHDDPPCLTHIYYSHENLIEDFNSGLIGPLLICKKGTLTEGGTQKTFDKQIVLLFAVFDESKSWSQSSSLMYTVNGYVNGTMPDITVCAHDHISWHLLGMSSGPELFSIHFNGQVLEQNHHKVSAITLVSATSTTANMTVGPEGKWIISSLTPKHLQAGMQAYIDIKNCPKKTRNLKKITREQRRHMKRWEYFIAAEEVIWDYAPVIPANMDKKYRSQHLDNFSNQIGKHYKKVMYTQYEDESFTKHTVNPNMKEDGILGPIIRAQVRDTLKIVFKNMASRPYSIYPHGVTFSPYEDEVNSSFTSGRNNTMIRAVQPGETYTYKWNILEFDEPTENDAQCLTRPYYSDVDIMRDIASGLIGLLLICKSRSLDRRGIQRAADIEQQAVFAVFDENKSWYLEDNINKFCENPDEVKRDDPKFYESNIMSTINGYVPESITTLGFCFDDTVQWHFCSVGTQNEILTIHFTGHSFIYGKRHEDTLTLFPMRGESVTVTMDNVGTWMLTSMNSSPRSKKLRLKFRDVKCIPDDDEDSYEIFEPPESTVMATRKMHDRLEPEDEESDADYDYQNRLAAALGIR
Chain of FXa/FVa (prothrombinase components) (UniProt P00742) (P12259 1574-2224 limits assumed, chain 4 of 2): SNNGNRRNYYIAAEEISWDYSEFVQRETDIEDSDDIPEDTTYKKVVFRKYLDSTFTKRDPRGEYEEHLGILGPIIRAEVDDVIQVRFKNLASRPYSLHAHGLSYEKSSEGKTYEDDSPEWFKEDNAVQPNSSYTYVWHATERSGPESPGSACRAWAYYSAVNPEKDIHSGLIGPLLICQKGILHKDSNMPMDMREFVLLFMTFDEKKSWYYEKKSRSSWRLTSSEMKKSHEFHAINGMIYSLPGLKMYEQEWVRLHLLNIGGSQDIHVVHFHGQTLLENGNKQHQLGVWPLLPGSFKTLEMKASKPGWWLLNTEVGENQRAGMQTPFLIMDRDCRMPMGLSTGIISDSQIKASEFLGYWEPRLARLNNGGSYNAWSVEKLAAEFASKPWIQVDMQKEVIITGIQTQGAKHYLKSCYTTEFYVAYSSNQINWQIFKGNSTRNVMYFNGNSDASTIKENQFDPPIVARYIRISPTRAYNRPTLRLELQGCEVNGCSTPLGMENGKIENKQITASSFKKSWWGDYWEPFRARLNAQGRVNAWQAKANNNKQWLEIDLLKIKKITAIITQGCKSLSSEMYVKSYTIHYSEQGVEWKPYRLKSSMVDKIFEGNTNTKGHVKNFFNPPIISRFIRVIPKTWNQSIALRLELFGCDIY
Chain of FXa/FVa (prothrombinase components) (UniProt P00742 41-179; P00742 235-488; P12259 29-737; P12259 1574-2224) (P12259 29-737 limits assumed, chain 3 of 2): as the sequence (P12259 29-737 limits assumed, chain 3 of 2) above
Chain of FXa/FVa (prothrombinase components) (UniProt P00742 41-179; P00742 235-488; P12259 29-737; P12259 1574-2224) (P12259 1574-2224 limits assumed, chain 4 of 2): as the sequence (P12259 1574-2224 limits assumed, chain 4 of 2) above
T5 sequence (P04070 43-197, chain 1 of 2): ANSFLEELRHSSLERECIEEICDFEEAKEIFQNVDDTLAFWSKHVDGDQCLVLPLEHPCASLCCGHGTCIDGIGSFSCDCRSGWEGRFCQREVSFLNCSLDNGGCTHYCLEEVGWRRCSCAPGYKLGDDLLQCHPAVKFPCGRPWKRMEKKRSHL
T5 sequence (P04070 200-461, chain 2 of 2): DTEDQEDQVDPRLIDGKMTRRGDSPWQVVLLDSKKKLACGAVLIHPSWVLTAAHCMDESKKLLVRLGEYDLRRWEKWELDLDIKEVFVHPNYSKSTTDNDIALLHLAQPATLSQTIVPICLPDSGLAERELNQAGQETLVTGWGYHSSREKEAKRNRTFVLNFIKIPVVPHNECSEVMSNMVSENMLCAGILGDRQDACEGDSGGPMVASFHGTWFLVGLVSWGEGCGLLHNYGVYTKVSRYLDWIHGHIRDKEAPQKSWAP

Inhibition of prothrombinase, IC50 @ 25 µM PL, nM (total moles of protein S monomeric subunits) [1]: 111 nM | Inhibition of prothrombinase, IC50 @ 25 µM PL, nM of specific form [1]: 28 nM
Molecule: protein S forms >Trimer (from UniProt P07225 42-676)

Inhibition of prothrombinase, IC50 @ 25 µM PL, nM (total moles of protein S monomeric subunits) [1]: 116 nM | Inhibition of prothrombinase, IC50 @ 25 µM PL, nM of specific form [1]: 46 nM
Molecule: protein S Dimer-Trimer fraction (from UniProt P07225 42-676)

Inhibition of prothrombinase, IC50 @ 25 µM PL, nM (total moles of protein S monomeric subunits) [1]: 113 nM | Inhibition of prothrombinase, IC50 @ 25 µM PL, nM of specific form [1]: 38 nM
Molecule: protein S Trimer (from UniProt P07225 42-676)

Molecule: B1
Inhibition of prothrombinase, IC50 @ 25 µM PL, nM (total moles of protein S monomeric subunits) [2]: 119 nM | Inhibition of prothrombinase, IC50 @ 25 µM PL, nM of specific form [2]: 119 nM of specific form

Molecule: B2
binding result (C4b-binding protein): binds

Molecule: B3
Inhibition of prothrombinase, IC50 @ 25 µM PL, nM (total moles of protein S monomeric subunits) [2]: 109 nM | Inhibition of prothrombinase, IC50 @ 25 µM PL, nM of specific form [2]: 54 nM of specific form

Molecule: B4
binding result (human protein C): no binding | binding result (recombinant human Gas6): no binding

Molecule: B5
binding result [3]: no binding | binding result [4]: no binding | binding result [5]: no binding
